± gives the uncertainty stated by the source.
B1: Unconventional myosin-Ie, residues 1051 to 1108; numbered along this chain, Q12965 (parent)
chain: PQVPQCKALYAYDAQDTDELSFNANDIIDIIKEDPSGWWTGRLRGKQGLFPNNYVTKI

Variants of: B1
Assay: abundance fitness (aPCA) (normalised: wild type 0, dead -1); higher = more abundant; growth selection in yeast, the domain comes from the species named
Settings: Homo sapiens

| Variant | abundance fitness |
| --- | --- |
| PQVPQCKALYAYDAQDTDELSFNANDIIDIKKEDPSGWWTGRLRGKQGLFPNNYVTKI [I31K] | -0.478 ± 0.044 |
| PQVPQCKALYAYDAQDTDELSFNANDIIDIFKEDPSGWWTGRLRGKQGLFPNNYVTKI [I31F] | -0.462 ± 0.091 |
| PQVPQCKALYAYDAQDTDELSFNANDIIDITKEDPSGWWTGRLRGKQGLFPNNYVTKI [I31T] | -0.2 ± 0.032 |
| PQVPQCKALYAYDAQDTDELSFNANDIIDIQKEDPSGWWTGRLRGKQGLFPNNYVTKI [I31Q] | -0.48 ± 0.08 |
| PQVPQCKALYAYDAQDTDELSFNANDIIDIAKEDPSGWWTGRLRGKQGLFPNNYVTKI [I31A] | -0.346 ± 0.035 |
| PQVPQCKALYAYDAQDTDELSFNANDIIDICKEDPSGWWTGRLRGKQGLFPNNYVTKI [I31C] | -0.089 ± 0.064 |
| PQVPQCKALYAYDAQDTDELSFNANDIIDIWKEDPSGWWTGRLRGKQGLFPNNYVTKI [I31W] | -0.479 ± 0.042 |
| PQVPQCKALYAYDAQDTDELSFNANDIIDISKEDPSGWWTGRLRGKQGLFPNNYVTKI [I31S] | -0.58 ± 0.05 |
| PQVPQCKALYAYDAQDTDELSFNANSIIDIIKEDPSGWWTGRLRGKQGLFPNNYVTKI [D26S] | -0.522 ± 0.065 |
| PQVPQCKALYAYDAQDTDELSFNANYIIDIIKEDPSGWWTGRLRGKQGLFPNNYVTKI [D26Y] | -0.776 ± 0.19 |
| PQVPQCKALYAYDAQDTDELSFNANRIIDIIKEDPSGWWTGRLRGKQGLFPNNYVTKI [D26R] | -0.948 ± 0.089 |
| PQVPQCKALYAYDAQDTDELSFNANQIIDIIKEDPSGWWTGRLRGKQGLFPNNYVTKI [D26Q] | -0.263 ± 0.11 |
| PQVPQCKALYAYDAQDTDELSFNANWIIDIIKEDPSGWWTGRLRGKQGLFPNNYVTKI [D26W] | -0.987 ± 0.2 |
| PQVPQCKALYAYDAQDTDELSFNANVIIDIIKEDPSGWWTGRLRGKQGLFPNNYVTKI [D26V] | -0.855 ± 0.12 |
| PQVPQCKALYAYDAQDTDELSFNANDITDIIKEDPSGWWTGRLRGKQGLFPNNYVTKI [I28T] | -0.386 ± 0.29 |
| PQVPQCKALYAYDAQDTDELSFNANDIVDIIKEDPSGWWTGRLRGKQGLFPNNYVTKI [I28V] | -0.472 ± 0.45 |
| PQVPQCKALYAYDAQDTDELSFNANDILDIIKEDPSGWWTGRLRGKQGLFPNNYVTKI [I28L] | 0.237 ± 0.46 |
| PQVPQCKALYAYDAQDTDELSFNANDIIKIIKEDPSGWWTGRLRGKQGLFPNNYVTKI [D29K] | -0.555 ± 0.12 |
| PQVPQCKALYAYDAQDTDELSFNANDIIFIIKEDPSGWWTGRLRGKQGLFPNNYVTKI [D29F] | -0.408 ± 0.062 |
| PQVPQCKALYAYDAQDTDELSFNANDIISIIKEDPSGWWTGRLRGKQGLFPNNYVTKI [D29S] | -0.185 ± 0.055 |
| PQVPQCKALYAYDAQDTDELSFNANDIIPIIKEDPSGWWTGRLRGKQGLFPNNYVTKI [D29P] | -1.03 ± 0.41 |
| PQVPQCKALYAYDAQDTDELSFNANDIIAIIKEDPSGWWTGRLRGKQGLFPNNYVTKI [D29A] | -0.205 ± 0.043 |
| PQVPQCKALYAYDAQDTDELSFNANDIIVIIKEDPSGWWTGRLRGKQGLFPNNYVTKI [D29V] | -0.303 ± 0.053 |

| Variant | abundance fitness |
| --- | --- |
| PQVPQCKALYAYDAQDTDELSFNANDIIIIIKEDPSGWWTGRLRGKQGLFPNNYVTKI [D29I] | -0.345 ± 0.15 |
| PQVPQCKALYAYDAQDTDELSFNANDIIHIIKEDPSGWWTGRLRGKQGLFPNNYVTKI [D29H] | -0.193 ± 0.12 |
| PQVPQCKALYAYDAQDTDELSFNANDIIGIIKEDPSGWWTGRLRGKQGLFPNNYVTKI [D29G] | -0.478 ± 0.045 |
| PQVPQCKALYAYDAQDTDELSFNANDIIMIIKEDPSGWWTGRLRGKQGLFPNNYVTKI [D29M] | -0.243 ± 0.076 |
| PQVPQCKALYAYDAQDTDELSFNANDIINIIKEDPSGWWTGRLRGKQGLFPNNYVTKI [D29N] | -0.277 ± 0.098 |
| PQVPQCKALYAYDAQDTDELSFNANDIIYIIKEDPSGWWTGRLRGKQGLFPNNYVTKI [D29Y] | -0.285 ± 0.096 |
| PQVPQCKALYAYDAQDTDELSFNANDIIQIIKEDPSGWWTGRLRGKQGLFPNNYVTKI [D29Q] | -0.241 ± 0.067 |
| PQVPQCKALYAYDAQDTDELSFNANDIITIIKEDPSGWWTGRLRGKQGLFPNNYVTKI [D29T] | -0.062 ± 0.039 |
| PQVPQCKALYAYDAQDTDELSFNANDIIWIIKEDPSGWWTGRLRGKQGLFPNNYVTKI [D29W] | -0.312 ± 0.068 |
| PQVPQCKALYAYDAQDTDELSFNANDIIEIIKEDPSGWWTGRLRGKQGLFPNNYVTKI [D29E] | -0.072 ± 0.044 |
| PQVPQCKALYAYDAQDTDELSFNANDIICIIKEDPSGWWTGRLRGKQGLFPNNYVTKI [D29C] | -0.298 ± 0.086 |
| PQVPQCKALYAYDAQDTDELSFNANDIIRIIKEDPSGWWTGRLRGKQGLFPNNYVTKI [D29R] | -0.387 ± 0.032 |
| PQVPQCKALYAYDAQDTDELSFNANDIIDIILEDPSGWWTGRLRGKQGLFPNNYVTKI [K32L] | -0.122 ± 0.038 |
| PQVPQCKALYAYDAQDTDELSFNANDIIDIIFEDPSGWWTGRLRGKQGLFPNNYVTKI [K32F] | -0.373 ± 0.3 |
| PQVPQCKALYAYDAQDTDELSFNANDIIDIICEDPSGWWTGRLRGKQGLFPNNYVTKI [K32C] | -0.14 ± 0.051 |
| PQVPQCKALYAYDAQDTDELSFNANDIIDIINEDPSGWWTGRLRGKQGLFPNNYVTKI [K32N] | -0.009 ± 0.073 |
| PQVPQCKALYAYDAQDTDELSFNANDIIDIIMEDPSGWWTGRLRGKQGLFPNNYVTKI [K32M] | -0.1 ± 0.074 |
| PQVPQCKALYAYDAQDTDELSFNANDIIDIIEEDPSGWWTGRLRGKQGLFPNNYVTKI [K32E] | 0.013 ± 0.064 |
| PQVPQCKALYAYDAQDTDELSFNANDIIDIIIEDPSGWWTGRLRGKQGLFPNNYVTKI [K32I] | 0.028 ± 0.052 |
| PQVPQCKALYAYDAQDTDELSFNANDIIDIIAEDPSGWWTGRLRGKQGLFPNNYVTKI [K32A] | -0.056 ± 0.04 |
| PQVPQCKALYAYDAQDTDELSFNANDIIDIIHEDPSGWWTGRLRGKQGLFPNNYVTKI [K32H] | 0.047 ± 0.077 |
| PQVPQCKALYAYDAQDTDELSFNANDIIDIIGEDPSGWWTGRLRGKQGLFPNNYVTKI [K32G] | -0.097 ± 0.029 |
| PQVPQCKALYAYDAQDTDELSFNANDIIDIIDEDPSGWWTGRLRGKQGLFPNNYVTKI [K32D] | -0.242 ± 0.099 |

From the Human Domainome abundance scans (Beltran et al. 2025)
